# Assay results taken from the supplement of paper PMC9170038.
# Tested on: MS2 coat protein
# Experiment: apparent KD of MS2 coat protein; designed switch direction (-1 OFF switch, 1 ON switch): 1; higher = weaker reporter binding
# In short: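 Designed RNA switches with common flanks were transcribed on Illumina chips by stalled E. coli RNA polymerase and titrated with SNAP-549-labelled MS2 coat protein, from 0.7 or 1.5 nM doubling to 3 µM, in Tris-HCl pH 7.5 buffer with KCl, MgCl2, BSA, DTT, tRNA and Tween-20. Steps lasted 0.8–1.5 h (lowest) to 10–20 min (highest). Titrations ran without input, with 200 uM small-molecule ligand, or with an oligonucleotide input. Normalised cluster fluorescence was curve-fitted, and apparent KD is the per-design median over clusters.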
# [1] = input ligand: microRNA oligo, concentration not stated
# [2] = Eterna round: R95, input ligand: FMN 200 uM
# [3] = Eterna round: R95, input ligand: microRNA oligo, concentration not stated
# [4] = Eterna round: R95, input ligand: none
Sequence,apparent KD of MS2 coat protein (input ligand: FMN 200 uM),apparent KD of MS2 coat protein [1],apparent KD of MS2 coat protein (input ligand: none),apparent KD of MS2 coat protein [2],apparent KD of MS2 coat protein [3],apparent KD of MS2 coat protein [4]
"CGGGUGAUCGUAGGAUAUCUAGGAUAUGAACGAGGAUCACCCGAGCAGCAUCAGCGCAUCAGAGGAGAGAAGGACGAUCAUGCG [pwkr ssNG2 2F5 2FMN.7] (Eterna round: R96, puzzle: Same State NG 2)",326 nM,12.9 nM,59.1 nM,–,–,–
AGCUAUCGCGUACGAUAGCUGAAGCGUGUACAUGAGGAUCACCCAUGUCAUGUACAAGCUUUUUGCUCGUCUUAUUG [JL-shm-2.28 JL mod] (puzzle: Sensor for hsa-mir-208a),–,–,–,249 nM,18.2 nM,296 nM
"UGAAUGGUGAUAGGAUAUACAUGAGGAAUCCUCGUAGAAGGAUCAUGACAUGAGGAUCACCCAUGUAGCCGUCCGUAGACGGCA [JL SSNG1 1.22] (Eterna round: R96, puzzle: Same State NG 1)",140 nM,22.1 nM,351 nM,–,–,–
"GCACUCCUAGGAGCUGCGACAUGAGGAUCACCCAUGUAAUCACAGGAUAUGCGAGUCCGAAUUUUGCAGAAGGGUGAUAAGAAC [Biesanarre] (Eterna round: R96, puzzle: Same State NG 3)",404 nM,52.3 nM,45.7 nM,–,–,–
"AUAAAACACAUGAGGAUCACCCAUGUGGCCGAAGAAGGCACACAGGAUAUCAAGCAACUAAAGCUUGAGAAGGGUGAGACAAAA [Quistera] (Eterna round: R96, puzzle: Same State NG 3)",494 nM,30.7 nM,92.3 nM,–,–,–
"AUUUGUAAUGCAGGAUAUGAUUAACAUGAGGAUCACCCAUGUGGUGUUGUGAGUAAGGAGAGUGAUCAGAAGGGCAUUUUUUUU [JMF's solution 98] (Eterna round: R96, puzzle: Same State NG 2)",800 nM,295 nM,526 nM,–,–,–
AACACACAUGAGGAUCACCCAUGUACCGAAAUCACAGGAUAUACAUAACUGAAUAACAUUGUAGAAGGGUGGCCGG [Enorerteso] (puzzle: Same State 1),–,–,–,23.7 nM,65.7 nM,91.4 nM
"CCCGCGUUUCGCGCCUACAUGAGGAUCACCCAUGUUUGUAGGCAGGAUAUCGUCCGCUCUGCGGGCGAGAAGGGCUGUUGUGGU [salish99_SSNG3_R04_029] (Eterna round: R96, puzzle: Same State NG 3)",–,72.9 nM,–,–,–,–
"AGCUAGUACGAAGGAUAUACAAACAUGAGGAUCACCCAUGUAUACAUGGUUUGUUGUGACUACAUGUAGAAGGUCGUACUAGCA [SameState NG2 #16] (Eterna round: R96, puzzle: Same State NG 2)",362 nM,773 nM,987 nM,–,–,–
"UCGUUCAUCGUAGGAUAUCUAGGAUAUGAACGAGGAUCACCCGAGCAGCAUCAGCGCAUCAGAGGAGAGAAGGACGCUGAUGCG [pwkr ssNG2 2F5 2FMN.20] (Eterna round: R96, puzzle: Same State NG 2)",30 nM,8.83 nM,84.8 nM,–,–,–
AGUCCAGCGAAAGCUGGACAAAAGCAUGUACAUGAGGAUCACCCAUGUUUAUGUACAAGCUUUUUGCUCGUUUUAAA [JL mod - D95 - 16] (puzzle: Sensor for hsa-mir-208a),–,–,–,365 nM,13.1 nM,433 nM
"UGGUAACAUGAGGAUCACCCAUGUCAAAUGAAUCGAGGAUAUGGGAAUUAACAACACAAACUAGAAGGCGAAUUUG [Altered State 1-8 - Jieux - Same State 1] (Eterna round: R96, puzzle: Same State 1)",316 nM,151 nM,314 nM,–,–,–
"AGGAAACAUGAGGAUCACCCAUGUAAAAAUAUGGGAGGAUAUGCGAAAAGAAACAAAGAAGCAGAAGGCCUAAGAA [75%, Ex5 sub 1, 7] (Eterna round: R96, puzzle: Same State 1)",–,85.7 nM,–,–,–,–
AGAAAACAUGAGGAUCACCCAUGUAUAGUGAAUACAGGAUAUCACCGGCGGAAUAGCCAGUGAGAAGGGUGAUCGC [Aarusxe] (puzzle: Same State 1),–,–,–,71.5 nM,11.5 nM,41 nM
GGUAUCUCCCGUGAGGAUAUGCGGCGUAGAACAUGAGGAUCACCCAUGUCCUUCGAAUGGGUUACGCAGAAGGCACGACGGUACC [Robot Leg #2] (puzzle: Same State 2),–,–,–,–,24.5 nM,–
GCAGAACAUGAGGAUCACCCAUGUCUCAAAUAUUGAGGAUAUGGACACGGUAUAUCCGAACCAGAAGGCGAACUGC [SS1 Teenbexe 18] (puzzle: Same State 1),–,–,–,66.1 nM,74.3 nM,53.3 nM
